Values quoted from earlier work, collected in publication PMC5686428.

Biological target: HSV-1 glycoprotein D (soluble gD) (Herpes simplex virus type 1) (UniProt Q69091)
Assay: not stated (cited)
Conditions: SYBR Green assay: 1-200 nM protein, DApt (dissolved in PBS, heated 95 C 3 min, cooled on ice), 30 min, read at 520 nm; assay buffer, pH and temperature not …

UniProt Q69091, sequence (Q69091 26-331): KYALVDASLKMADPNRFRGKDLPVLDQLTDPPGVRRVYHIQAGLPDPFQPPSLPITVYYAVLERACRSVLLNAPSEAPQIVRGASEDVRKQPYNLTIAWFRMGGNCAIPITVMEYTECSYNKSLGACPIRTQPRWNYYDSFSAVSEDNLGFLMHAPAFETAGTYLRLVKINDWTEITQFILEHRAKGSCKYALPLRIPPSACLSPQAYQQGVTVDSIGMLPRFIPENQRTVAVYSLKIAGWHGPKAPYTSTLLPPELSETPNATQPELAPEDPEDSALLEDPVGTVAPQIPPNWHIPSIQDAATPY

GGGCACGAGAGAGGUCGUCCCCAGGGGAGAACUCGUGCUCCUGG [mini-1 RNA aptamer]
Kd: 4 nM
